The series deals with the molecule itself. As to the kind of experiment: crystal structure.

B1: RdmB, N-terminal His6-tagged (enzyme, Streptomyces purpurascens)
chain: MSSSSPGEPLEPTDQDLDVLLKNLGNLVTPMALRVAATLRLVDHLLAGADTLAGLADRTDTHPQALSRLVRHLTVVGVLEGGEKQGRPLRPTRLGMLLADGHPAQQRAWLDLNGAVSHADLAFTGLLDVVRTGRPAYAGRYGRPFWEDLSADVALADSFDALMSCDEDLAYEAPADAYDWSAVRHVLDVGGGNGGMLAAIALRAPHLRGTLVELAGPAERARRRFADAGLADRVTVAEGDFFKPLPVTADVVLLSFVLLNWSDEDALTILRGCVRALEPGGRLLVLDRADVEGDGADRFFSTLLDLRMLTFMGGRVRTRDEVVDLAGSAGLALASERTSGSTTLPFDFSILEFTAVSEEAAPAAQASEALPAQE
Turning to B1, the binding result is “binds”.

The values are drawn from paper doi:10.1101/2024.05.03.592356 (bioRxiv, 2024).
